Results reported in the Immune Epitope Database (IEDB).
One block for each sequence: values may come before it.

How the values were obtained:
[1] = biological target: HLA-A*02:03; test: IEDB peptide-MHC binding, purified MHC/competitive/fluorescence; filed as Kd, often an IC50 or EC50 that approximates it; ≥ and ≤ were set here for values at or beyond the usual limits of such assays
[2] = biological target: HLA-A*24:03; test: as above
[3] = biological target: HLA-B*39:01; test: as above
[4] = biological target: HLA-A*02:12; test: as above
[5] = biological target: HLA-A*69:01; test: as above
[6] = biological target: HLA-B*15:17; test: as above; conditions: source organism: Cryptosporidium parvum Iowa II
[7] = biological target: HLA-B*57:01; test: as above
[8] = biological target: HLA-B*15:01; test: as above
[9] = biological target: HLA-A*68:02; test: as above
[10] = biological target: HLA-A*02:16; test: as above
[11] = biological target: HLA-A*26:01; test: as above
[12] = biological target: HLA-A*29:02; test: as above
[13] = biological target: HLA-B*51:01; test: as above
[14] = biological target: HLA-B*27:03; test: as above
[15] = biological target: HLA-B*18:01; test: as above
[16] = biological target: HLA-A*02:19; test: as above
[17] = biological target: HLA-B*46:01; test: as above
[18] = biological target: HLA-A*02:01; test: as above
[19] = biological target: HLA-A*03:01; test: as above
[20] = biological target: HLA-A*02:11; test: as above
[21] = biological target: HLA-A*01:01; test: IEDB peptide-MHC binding, purified MHC/direct/fluorescence; filed as Kd, often an IC50 or EC50 that approximates it; ≥ and ≤ were set here for values at or beyond the usual limits of such assays
[22] = biological target: HLA-A*80:01; test: as above
[23] = biological target: HLA-A*30:01; test: IEDB peptide-MHC binding, purified MHC/competitive/radioactivity; filed as Kd, often an IC50 or EC50 that approximates it; ≥ and ≤ were set here for values at or beyond the usual limits of such assays; conditions: source organism: Vaccinia virus WR
[24] = biological target: HLA-B*08:01; test: IEDB peptide-MHC binding, purified MHC/competitive/fluorescence; ≥ and ≤ were set here for values at or beyond the usual limits of such assays
[25] = biological target: HLA-B*07:02; test: as above
[26] = biological target: HLA-A*11:01; test: as above; conditions: source organism: Zaire ebolavirus
[27] = biological target: HLA-B*15:01; test: as above; conditions: source organism: Zaire ebolavirus
[28] = biological target: HLA-A*02:01; test: as above; conditions: source organism: Zaire ebolavirus
[29] = biological target: HLA-A*03:01; test: as above; conditions: source organism: Zaire ebolavirus
[30] = biological target: HLA-A*24:02; test: as above
[31] = biological target: HLA-A*31:01; test: IEDB peptide-MHC binding, purified MHC/competitive/fluorescence; filed as Kd, often an IC50 or EC50 that approximates it; ≥ and ≤ were set here for values at or beyond the usual limits of such assays; conditions: source organism: Bacillus anthracis str. A0488
[32] = biological target: HLA-B*40:01; test: as above
[33] = source organism: Cryptosporidium parvum Iowa II
[34] = source organism: Rickettsia sibirica 246
[35] = source organism: Bacillus anthracis
[36] = source organism: Burkholderia pseudomallei 91
[37] = source organism: Zaire ebolavirus
[38] = source organism: Burkholderia vietnamiensis G4
[39] = source organism: Listeria monocytogenes J0161
[40] = source organism: Human immunodeficiency virus 1
[41] = source organism: Bacillus anthracis str. A0488
[42] = source organism: Orthohantavirus andesense
[43] = source organism: Escherichia coli E22
[44] = source organism: Vaccinia virus WR

Sequence: KLYLRPWWH
Kd [1, 33]: ≥ 20 µM | Kd [2, 33]: ≥ 20 µM | Kd [3, 33]: ≥ 20 µM | Kd [4, 33]: ≥ 20 µM | Kd [5, 33]: ≥ 20 µM | Kd [6]: ≥ 20 µM | Kd [7, 33]: ≥ 20 µM | Kd [8, 33]: ≥ 20 µM | Kd [9, 33]: ≥ 20 µM | Kd [10, 33]: ≥ 20 µM | Kd [11, 33]: ≥ 20 µM | Kd [12, 33]: 0.683 µM | Kd [13, 33]: ≥ 20 µM | Kd [14, 33]: ≥ 20 µM | Kd [15, 33]: ≥ 20 µM | Kd [16, 33]: ≥ 20 µM | Kd [17, 33]: ≥ 20 µM | Kd [18, 33]: ≥ 20 µM | Kd [19, 33]: 0.0044 µM | Kd [20, 33]: ≥ 20 µM

Sequence: YLKKLDDFY
Kd [2, 34]: ≥ 20 µM | Kd [3, 34]: ≥ 20 µM | Kd [4, 34]: ≥ 20 µM | Kd [5, 34]: ≥ 20 µM | Kd [7, 34]: ≥ 20 µM | Kd [9, 34]: ≥ 20 µM | Kd [10, 34]: ≥ 20 µM | Kd [11, 34]: ≥ 20 µM | Kd [13, 34]: ≥ 20 µM | Kd [14, 34]: ≥ 20 µM | Kd [15, 34]: ≥ 20 µM | Kd [16, 34]: ≥ 20 µM | Kd [17, 34]: ≥ 20 µM | Kd [18, 34]: ≥ 20 µM | Kd [19, 34]: ≥ 20 µM | Kd [20, 34]: ≥ 20 µM

Sequence: SVHYKFVTK
Kd [21, 35]: ≥ 20 µM | Kd [22, 35]: ≥ 20 µM

Sequence: HFKPPKFRA
Kd [23]: 0.00886 µM | IC50 ([24]; source organism: Vaccinia virus): ≥ 150 µM

Sequence: RAYAAMHLW
Kd [1, 36]: ≥ 20 µM | Kd [3, 36]: ≥ 20 µM | Kd [4, 36]: ≥ 20 µM | Kd [5, 36]: ≥ 20 µM | Kd [7, 36]: 0.31 µM | Kd [9, 36]: ≥ 20 µM | Kd [10, 36]: ≥ 20 µM | Kd [11, 36]: ≥ 20 µM | Kd [14, 36]: ≥ 20 µM | Kd [16, 36]: ≥ 20 µM | Kd [17, 36]: ≥ 20 µM | Kd [18, 36]: ≥ 20 µM | Kd [19, 36]: ≥ 20 µM | Kd [20, 36]: ≥ 20 µM

Sequence: FLKIKVTAA
IC50 ([24]; source organism: Vaccinia virus Copenhagen): 15.6 µM

Sequence: RFKRTSFFL
IC50 [25, 37]: ≥ 215 µM | IC50 [24, 37]: 26.5 µM | IC50 [26]: ≥ 390 µM | IC50 [27]: 9.58 µM | IC50 [28]: ≥ 117 µM | IC50 [29]: ≥ 504 µM

Sequence: IAVARKHHT
IC50 ([24]; source organism: Variola virus): ≥ 91.6 µM | IC50 ([30]; source organism: Variola virus): 49.4 µM

Sequence: VLRACWNEK
Kd [21, 35]: ≥ 20 µM | Kd [22, 35]: ≥ 20 µM

Sequence: PLFKRGWRL
Kd [2, 38]: ≥ 20 µM | Kd [3, 38]: ≥ 20 µM | Kd [7, 38]: ≥ 20 µM | Kd [8, 38]: ≥ 20 µM | Kd [11, 38]: ≥ 20 µM | Kd [12, 38]: ≥ 20 µM | Kd [13, 38]: ≥ 20 µM | Kd [14, 38]: ≥ 20 µM | Kd [15, 38]: ≥ 20 µM | Kd [17, 38]: ≥ 20 µM | Kd [18, 38]: 0.199 µM | Kd [19, 38]: ≥ 20 µM | Kd [20, 38]: 0.0285 µM

Sequence: YNAKRIETV
Kd [1, 39]: ≥ 20 µM | Kd [2, 39]: ≥ 20 µM | Kd [3, 39]: ≥ 20 µM | Kd [4, 39]: ≥ 20 µM | Kd [7, 39]: ≥ 20 µM | Kd [8, 39]: ≥ 20 µM | Kd [11, 39]: ≥ 20 µM | Kd [12, 39]: ≥ 20 µM | Kd [13, 39]: ≥ 20 µM | Kd [14, 39]: ≥ 20 µM | Kd [15, 39]: ≥ 20 µM | Kd [16, 39]: ≥ 20 µM | Kd [17, 39]: ≥ 20 µM | Kd [18, 39]: ≥ 20 µM | Kd [19, 39]: ≥ 20 µM | Kd [20, 39]: 0.239 µM

Sequence: GLGQYIYET
Kd [1, 40]: 0.294 µM | Kd [4, 40]: 0.039 µM | Kd [5, 40]: ≥ 20 µM | Kd [10, 40]: 0.000819 µM | Kd [16, 40]: 0.254 µM | Kd [18, 40]: 0.14 µM | Kd [20, 40]: 0.0322 µM

Sequence: IQKGMFVVK
Kd [1, 41]: ≥ 20 µM | Kd [2, 41]: ≥ 20 µM | Kd [3, 41]: ≥ 20 µM | Kd [4, 41]: ≥ 20 µM | Kd [31]: 0.0158 µM | Kd [5, 41]: ≥ 20 µM | Kd [7, 41]: ≥ 20 µM | Kd [9, 41]: ≥ 20 µM | Kd [10, 41]: ≥ 20 µM | Kd [11, 41]: ≥ 20 µM | Kd [13, 41]: ≥ 20 µM | Kd [14, 41]: ≥ 20 µM | Kd [15, 41]: ≥ 20 µM | Kd [16, 41]: ≥ 20 µM | Kd [17, 41]: ≥ 20 µM | Kd [18, 41]: ≥ 20 µM | Kd [20, 41]: ≥ 20 µM

Sequence: HSDDALFIY
Kd [21, 42]: ≥ 20 µM | Kd [22, 42]: 16 µM

Kd [8, 43]: ≥ 20 µM | Kd [32, 43]: 3 µM
Sequence: DEIAFGLKL

Sequence: LPKRSVMLI
IC50 [25, 44]: 6.45 µM | IC50 [24, 44]: 12.9 µM | IC50 [30, 44]: ≥ 93 µM

Sequence: IEIARTLTL
Kd ([32]; source organism: Salmonella enterica subsp. enterica serovar Typhi): 0.0108 µM
